Experiment [1] deals with Biotin-labelled MMRN1 (human) (UniProt Q13201). Kind of experiment: SPR; BIAcoreX; biotin-labelled MMRN1 immobilised on streptavidin-coated sensor chips (500–1000 RU); VWF A domains perfused in HEPES-Tyrode running buffer with 0.005 % P-20; two-state conformational model for A1A2A3 and A1, 1:1 Langmuir model for A3; apparent affinity. (In general: Surface plasmon resonance follows binding to a sensor surface in real time, without labels.)

The target of experiment [2] is full-length wild-type (WT)-VWF (UniProt P04275). Nature of the experiment: ELISA; modified ELISA; MMRN1 immobilised; WT-VWF (1 µg/ml) added simultaneously with collagen peptide (250 μg/ml, no preincubation with VWF); treatment of VWF not stated for this panel. For orientation: An ELISA detects its analyte on a solid surface through an enzyme-linked reagent.

Sequence of Biotin-labelled MMRN1 (human) (Q13201 20-1228): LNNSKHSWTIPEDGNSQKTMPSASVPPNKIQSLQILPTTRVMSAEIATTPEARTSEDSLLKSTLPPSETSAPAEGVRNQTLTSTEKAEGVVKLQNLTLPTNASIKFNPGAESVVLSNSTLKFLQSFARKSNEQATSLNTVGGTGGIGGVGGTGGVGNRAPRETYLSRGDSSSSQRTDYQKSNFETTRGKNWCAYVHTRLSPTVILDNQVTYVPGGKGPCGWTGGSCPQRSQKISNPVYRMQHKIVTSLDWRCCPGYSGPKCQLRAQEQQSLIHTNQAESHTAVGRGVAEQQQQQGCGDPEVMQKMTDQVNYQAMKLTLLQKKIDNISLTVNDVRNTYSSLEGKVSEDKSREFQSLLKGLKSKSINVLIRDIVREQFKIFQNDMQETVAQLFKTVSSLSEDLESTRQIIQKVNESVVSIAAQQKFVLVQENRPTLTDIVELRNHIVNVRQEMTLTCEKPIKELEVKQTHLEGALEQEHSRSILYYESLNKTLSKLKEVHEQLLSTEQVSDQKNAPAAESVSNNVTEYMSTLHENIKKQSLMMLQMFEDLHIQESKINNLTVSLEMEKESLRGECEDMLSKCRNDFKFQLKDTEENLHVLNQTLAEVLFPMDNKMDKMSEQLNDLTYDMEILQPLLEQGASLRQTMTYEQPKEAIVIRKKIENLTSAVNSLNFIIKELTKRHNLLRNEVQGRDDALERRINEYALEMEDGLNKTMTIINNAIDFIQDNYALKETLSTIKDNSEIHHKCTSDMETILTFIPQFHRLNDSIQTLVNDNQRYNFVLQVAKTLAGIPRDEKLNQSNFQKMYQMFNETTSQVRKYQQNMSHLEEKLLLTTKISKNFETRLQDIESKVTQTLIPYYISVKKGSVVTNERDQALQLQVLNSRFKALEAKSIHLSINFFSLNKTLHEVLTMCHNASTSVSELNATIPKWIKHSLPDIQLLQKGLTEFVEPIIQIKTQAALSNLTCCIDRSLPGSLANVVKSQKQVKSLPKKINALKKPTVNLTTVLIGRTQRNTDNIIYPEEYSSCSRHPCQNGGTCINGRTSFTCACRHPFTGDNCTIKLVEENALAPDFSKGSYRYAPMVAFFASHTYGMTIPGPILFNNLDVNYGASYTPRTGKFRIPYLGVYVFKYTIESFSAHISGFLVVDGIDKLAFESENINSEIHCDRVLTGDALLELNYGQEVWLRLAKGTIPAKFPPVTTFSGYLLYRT

In the case of “Monomeric VWF A1 domain (domain or fragment)”, in experiment [1], the Kd is 39.3 nM; the ka1 (two-state model, first step) stood at 1.2e+06 M⁻¹ s⁻¹; the ka2 (two-state model, second step) was determined as 0.01 s⁻¹; the kd1 (two-state model, first step) worked out at 0.13 s⁻¹. In addition, the kd2 (two-state model, second step) in experiment [1] stood at 0.0032 s⁻¹.
In turn, “Triple-helical type III collagen peptide GPRGQOGVMGFO” came in with a percent reduction of WT-VWF binding to immobilised MMRN1 in experiment [2] of 70%.
